Data: patent publication US20100120681A1 (Ablynx, published 2010)
Residue numbers refer to the chain shown, from its start.

T1: E. coli expressed VEGF109 (human, UniProt P15692 207-315)
T1 construct: also called hVEGF109
T1 sequence: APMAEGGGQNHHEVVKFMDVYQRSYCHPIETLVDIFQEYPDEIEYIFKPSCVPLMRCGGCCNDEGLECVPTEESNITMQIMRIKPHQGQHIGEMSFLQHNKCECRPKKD

B1: PVEGFPMP42A5 (VHH)
VHH: EVQLVESGGGLVQAGGSLRLSCAASGRTFSGVDVAWFRQAPGKEREFVAALAWSGIRTYYAVSVKGRFTISRGDPNDTVYLQMTSLKPEDTAVYYCATGRASRTSDYYTDRIYDSWGQGAQVTVSS
notes: tested as periplasmic extract; not shown: C-terminal c-myc tag and (His)6 tag from the vector
B2: PVEGFPMP42C1 (VHH)
VHH: B1 VHH with D74N, S102Y, T104G
notes: as for B1
B3: PVEGFPMP42F10 (VHH)
VHH: B1 VHH with P41T
notes: as for B1
B4: PVEGFPMP42A3 (VHH)
VHH: B1 VHH with Q3P, L4M
notes: as for B1
B5: PVEGFPMP42E3 (VHH)
VHH: EVQLVESGGGLVQAGGALRLSCAASGRTFETYRMGWFRQAPGKEREFVALINWSSGTTIYADSVKGRFTISGDNAKDTVYLEMNSLKPEDTAVYYCAVGRRWSGSYYSALAYQYWGQGTQVTVSS
notes: as for B1
B6: PVEGFPMP42D10 (VHH)
VHH: B5 VHH with T57I, I59V, A61L, R101A
notes: as for B1
B7: PVEGFPMP42D7 (VHH)
VHH: B5 VHH with L20P, I59V
notes: as for B1
B8: PVEGFPMP42C7 (VHH)
VHH: B5 VHH with Q117K
notes: as for B1
B9: PVEGFPMP42H9 (VHH)
VHH: B5 VHH with I59V
notes: as for B1
B10: PVEGFPMP42C10 (VHH)
VHH: B5 VHH with A24V, T31S, A49S, T57K, R101A
notes: as for B1
B11: PVEGFPMP42D5 (VHH)
VHH: B5 VHH with Q13H, T28A, I59V
notes: as for B1
B12: PVEGFPMP42E4 (VHH)
VHH: B5 VHH with V5M, A17S, A24V, T31S, A49S, T57K, R101A
notes: as for B1
B13: PVEGFPMP42B10 (VHH)
VHH: EVQLVESGGGLVQAGGSLRLSCTASGRALDTYTVTWFRQTPGKEREFVASNRWNAKPYTTDSVKGRFTISRDNAKNTVYLQMNSLKPEDTAVYYCAADLTTWADGPYRYWGQGTQVTVSS
notes: as for B1
B14: PVEGFPMP42H5 (VHH)
VHH: B13 VHH with T59V
notes: as for B1
B15: PVEGFPMP42G5 (VHH)
VHH: B13 VHH with Q3H, T23A, E44T, N51V, L99P
notes: as for B1
B16: PVEGFPMP42E2 (VHH)
VHH: B13 VHH with T23A, E44G, V48L, N51I, I69M, K86R, L99P
notes: as for B1
B17: PVEGFPMP42F1 (VHH)
VHH: B13 VHH with A14P, T23A, E44T, N51V, L99P
notes: as for B1
B18: PVEGFPMP42C5 (VHH)
VHH: B13 VHH with E1K, T23A, N51I, V92I
notes: as for B1

Experiments:
hVEGF165 (R&D Systems) = target: T2, hVEGF165 (R&D Systems) (human, UniProt P15692 27-191); assay: SPR Biacore 3000, periplasmic extract over VEGF165-coated CM5 chip
T2 construct: mature; also called biotinylated hVEGF165
Procedure: (§1) Analysis of the results was done using BIAevaluation software. Off-rates were determined by the ‘fit kinetics separate ka/kd’ model, langmuir dissociation. A time interval of ±100s was used for the fitting.

[1] = target: T1, E. coli expressed VEGF109; assay: SPR Biacore 3000, periplasmic extract over VEGF109-coated CM5 chip
Procedure: as §1

T2 sequence (P15692 other isoform, or with tags, fused parts or gaps): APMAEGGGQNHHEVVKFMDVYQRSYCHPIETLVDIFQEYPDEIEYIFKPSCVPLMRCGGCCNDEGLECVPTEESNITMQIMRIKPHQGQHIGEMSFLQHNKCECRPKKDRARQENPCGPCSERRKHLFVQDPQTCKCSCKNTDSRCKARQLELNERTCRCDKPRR

| Binder | koff (hVEGF165 (R&D Systems)) [s⁻¹] | koff [1] [s⁻¹] |
| --- | --- | --- |
| B1 | 0.00154 | 0.00167 |
| B2 | 0.00835 | 0.00825 |
| B3 | 0.00165 | 0.00176 |
| B4 | 0.00259 | 0.00284 |
| B5 | 0.0015 | 0.000689 |
| B6 | 0.00634 | 0.00411 |
| B7 | 0.00094 | 0.000176 |
| B8 | 0.00151 | 0.00061 |
| B9 | 0.00149 | 0.000315 |
| B10 | 0.0168 | 0.00753 |
| B11 | 0.00147 | 0.000368 |
| B12 | 0.02 | 0.00774 |
| B13 | 0.000362 | 0.000227 |
| B14 | 0.000528 | 0.000315 |
| B15 | 0.000447 | 0.000251 |
| B16 | 0.000311 | 0.000134 |
| B17 | 0.000501 | 0.000278 |
| B18 | 0.000641 | 0.000448 |
